Where “and” joins values, the source holds several entries; their conditions need not be identical. Equal entries are not always repeated.
Legend:
GPIIb/IIIa receptor [1] = target: T1, GPIIb/IIIa receptor (Homo sapiens, UniProt P05106+P08514); assay: Fibrinogen-coated bead agglutination whole blood assay with activating peptide; type: cell-based; parameters: key to agglutination assay result: the assay remained positive (i.e., 1-4+); The assay became negative (i.e., O+); conditions: for agglutination assay result: 2 μM activating peptide
T1 construct: GP IIb/IIIa receptor proteins, which are found on the cell surface of platelets; endogenous in cells; host or cells: platelets in citrated whole blood of donors
Description: Blood (9 volumes) is drawn from a patient by syringe and placed into standard blue-top tube containing sodium citrate (1 volume of 3.8% sodium citrate). Alternatively, blood may be drawn by Vacutainer directly into a blue-top tube. The tube is then inverted to mix the anticoagulant with the whole blood. Then 70 μl of this mixture is added to an assay tube containing 100 μl of buffer (0.15M NaCl, 0.5 mM CaCl2, 0.01M HEPES, pH 7.4), 10 μl of well-mixed fibrinogen coated beads prepared by the method of Example 1, and 5-10 µl of isoSer-Phe-Leu-Leu-Arg-Asn (SEQ ID NO:3).
The assay tube is then placed on a rocker and rocked at 20 cpm at room temperature for two minutes. The tube is removed from the rocker, held vertically to allow the blood to drain and viewed. If less than 80% of GPIIb/IIIa receptor blockade has been achieved in the patient's blood, agglutinated beads are readily seen in the streak marking where the blood tilted back and forth.
(§1) Purified peak I-2 fibrinogen is coupled to 3 μm, blue carboxylated beads (obtained from Polysciences, Inc.) using a water soluble carbodiimide (EDC) by the method of Example 1. The assay is conducted by adding to a 12×75 mm glass test tube: 100 μl of buffer, 20 μl of beads (2.5% slurry), and 5 μl of isoSer-Phe-Leu-Leu-Arg-Asn. Blood is collected into citrate anticoagulant and 70 μl of the whole blood is added to the test tube, which is then capped, placed on a rocking platform, and rocked at 16 cycles/min. When normal blood was tested using 1 or 2 μM activating peptide, a 4+ agglutination endpoint was easily observed in all donors (n=10) by 2 min. […] Using 2 μM activating peptide, the assay remained positive (i.e., 1-4+) at c7E3 Fab concentrations of 0.8 (n=1), 1.2 (n=1), 1.5 (n=3), and 1.8 (n=2) μg/ml, corresponding to GPIIb/IIIa receptor blockade of 56%; 77%; 68, 68, and 82%; and 66 and 73%. The assay became negative (i.e., O+) at c7E3 Fab concentrations of 1.2 (n=1), 1.5 (n=1), 1.8 (n=3) and 2.4 (n=2) μg/ml, corresponding to GPIIb/IIIa receptor blockade of 77%; 92%; 83, 88 and 94%; and 88 and 89%. […] The percentage of receptor blockade was assayed by radiolabeled 7E3 binding as reported in Coller et al., N.Y. Acad. Sci., 614:193 (1993).

aminopeptidase M [2] = conditions: in the presence of aminopeptidase M; cited from earlier work
thrombin receptor = conditions: cited from earlier work
aminopeptidase M [3] = conditions: incubated in plasma; cited from earlier work
GPIIb/IIIa receptor [4] = target: T1, GPIIb/IIIa receptor; conditions: cited from earlier work
GPIIb/IIIa receptor [5] = target: T1, GPIIb/IIIa receptor; assay: GPIIb/IIIa receptor blockade assayed by radiolabeled 7E3 binding
Description: as §1

[6] = blood pretreated with c7E3 Fab at 5 doses between 0.8-3.0 μg/ml for about 10 minutes at 22° C.

Compound: CC(=O)Oc1ccccc1C(=O)O [Aspirin, reference compound]
- effect on the agglutination assay results (GPIIb/IIIa receptor [1]; Aspirin 1 mM): did not appreciably affect the results

Compound: CC(C)C[C@@H](N)[C@H](O)C(=O)N[C@H](C(=O)N[C@H](C(=O)N[C@@H](CC(=O)O)C(=O)O)C(C)C)C(C)C [amastatin]
- effect on platelet aggregation (aminopeptidase M [2]): enhance platelet aggregation

Compound: T-11: eleven amino acid peptide lacking the three C-terminal amino acids of T-14 (SFLLRNPNDKY)
- platelet activation activity relative to T-6 (thrombin receptor): ~ 20%
- potency relative to T-14 (thrombin receptor): twice as potent as T-14
- ability to induce aggregation after incubation in plasma (aminopeptidase M [3]): lose their ability to induce aggregation

Compound: T-14: fourteen amino acid peptide corresponding to the new N-terminus of the cleaved thrombin receptor protein (SFLLRNPNDKYEPF)
- platelet aggregating activity (thrombin receptor): capable of aggregating platelets directly
- ability to induce aggregation after incubation in plasma (aminopeptidase M [3]): lose their ability to induce aggregation

Compound: c7E3 Fab: GPIIb/IIIa receptor blocking agent, monoclonal antibody c7E3 Fab
- agglutination assay result (GPIIb/IIIa receptor [1]; c7E3 Fab 0.8 μg/ml): positive
- agglutination assay result (GPIIb/IIIa receptor [1]; c7E3 Fab 2.4 μg/ml): negative
- agglutination of beads (GPIIb/IIIa receptor [1]; [6]): elimination of agglutination
- bleeding times (GPIIb/IIIa receptor [4]; blockade of about 80% or more of GPIIb/IIIa receptors, often to times greater than thirty minutes): prolongs the bleeding times
- platelet aggregation (GPIIb/IIIa receptor [4]; blockade of about 80% or more of an individual's GPIIb/IIIa receptors): abolishes platelet aggregation
- antithrombotic effect (GPIIb/IIIa receptor [4]; patient with a platelet count greater than 900,000/μl, standard dose): virtually no antithrombotic effect
- GPIIb/IIIa receptor blockade (trend) (GPIIb/IIIa receptor [5]; [6]): increasing GPIIb/IIIa receptor blockade
- GPIIb/IIIa receptor blockade (GPIIb/IIIa receptor [5]; c7E3 Fab 0.8 μg/ml, samples with positive agglutination assay): 56%
- GPIIb/IIIa receptor blockade (GPIIb/IIIa receptor [5]; c7E3 Fab 1.2 μg/ml, samples with negative agglutination assay): 77%
- GPIIb/IIIa receptor blockade (GPIIb/IIIa receptor [5]; c7E3 Fab 1.2 μg/ml, samples with positive agglutination assay): 77%
- GPIIb/IIIa receptor blockade (GPIIb/IIIa receptor [5]; c7E3 Fab 1.5 μg/ml, samples with negative agglutination assay): 92%
- GPIIb/IIIa receptor blockade (GPIIb/IIIa receptor [5]; c7E3 Fab 1.5 μg/ml, samples with positive agglutination assay): 68% and 82%
- GPIIb/IIIa receptor blockade (GPIIb/IIIa receptor [5]; c7E3 Fab 1.8 μg/ml, samples with negative agglutination assay): 83% and 88% and 94%
- GPIIb/IIIa receptor blockade (GPIIb/IIIa receptor [5]; c7E3 Fab 1.8 μg/ml, samples with positive agglutination assay): 66% and 73%
- GPIIb/IIIa receptor blockade (GPIIb/IIIa receptor [5]; c7E3 Fab 2.4 μg/ml, samples with negative agglutination assay): 88% and 89%

Compound: heparin [reference compound]
- effect on the agglutination assay results (GPIIb/IIIa receptor [1]; heparin 3.5 U/ml): did not appreciably affect the results

Source: patent US5854005A, “Platelet blockade assay” (Mount Sinai School of Medicine, priority 1996, dated 1998)
